Results: PMC10910542 (Acta Crystallographica. Section D, Structural Biology, 2024)

Tests used:
MKbur = biological target: T1, MKbur (Methanococcoides burtonii, UniProt Q12TI0); experiment: residual activity, coupled assay; type: biochemical; conditions: 1.5 mM mevalonate, 3 mM ATP
T1 construct: gene mvk

MKvar = biological target: T2, MKvar (Ramazzottius varieornatus, UniProt A0A1D1VW28); experiment: residual activity, coupled assay; type: biochemical
T2 construct: gene RvY_15762-1
T2 sequence (A0A1D1VW28 1-405): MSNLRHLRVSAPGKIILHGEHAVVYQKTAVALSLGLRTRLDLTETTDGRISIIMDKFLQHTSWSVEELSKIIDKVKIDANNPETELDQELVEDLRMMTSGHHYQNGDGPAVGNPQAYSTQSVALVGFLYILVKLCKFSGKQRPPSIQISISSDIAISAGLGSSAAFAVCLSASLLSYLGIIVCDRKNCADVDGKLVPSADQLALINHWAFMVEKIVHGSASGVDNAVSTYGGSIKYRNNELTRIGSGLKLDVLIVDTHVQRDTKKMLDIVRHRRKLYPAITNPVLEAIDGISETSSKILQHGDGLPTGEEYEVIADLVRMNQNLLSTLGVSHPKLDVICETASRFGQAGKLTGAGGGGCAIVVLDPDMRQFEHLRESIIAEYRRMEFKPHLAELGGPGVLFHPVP

MKmaz = biological target: T3, MKmaz (Methanosarcina mazei, UniProt Q8PW39); experiment: residual activity, coupled assay; type: biochemical
T3 construct: gene mvk
T3 sequence (Q8PW39 1-301): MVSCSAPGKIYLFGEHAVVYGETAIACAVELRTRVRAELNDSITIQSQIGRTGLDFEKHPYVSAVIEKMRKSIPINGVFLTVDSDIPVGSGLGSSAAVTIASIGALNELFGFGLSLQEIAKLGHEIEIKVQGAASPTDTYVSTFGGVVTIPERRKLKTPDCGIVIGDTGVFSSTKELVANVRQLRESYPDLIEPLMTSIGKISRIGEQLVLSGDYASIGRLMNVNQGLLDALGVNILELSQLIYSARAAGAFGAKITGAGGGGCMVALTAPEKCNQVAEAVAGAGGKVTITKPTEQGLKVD

purified protein [1] = substrate: CC(O)(CCO)CC(=O)O; experiment: purified protein; conditions: 5 mM ATP, Mg2+ 10 mM, 25 °C, racemic mevalonate
purified protein [2] = substrate: Nc1ncnc2c1ncn2[C@@H]1O[C@H](COP(=O)(O)OP(=O)(O)OP(=O)(O)O)[C@@H](O)[C@H]1O; experiment: purified protein; conditions: 5 mM (RS)-mevalonate, Mg2+ 10 mM, 25 °C

Row | remaining activity at 100 µM (MKvar) [%] | remaining activity at 100 µM (MKmaz) [%] | Molecule | % residual activity at 100 μM (MKbur) | Km (purified protein [1]) [µM] | kcat (purified protein [1]) [s⁻¹] | kcat/Km (purified protein [1]) [M⁻¹ s⁻¹] | Km (purified protein [2]) [µM]
1 | 0.4 | 70 | CC(C)=CCC/C(C)=C/CC/C(C)=C/COP(=O)(O)OP(=O)(O)O [farnesyl pyrophosphate] | MKbur, like MKmaz, appears to be less sensitive to inhibition |  |  |  | 
2 | < 20 | 92 | CC(C)=CCC/C(C)=C/COP(=O)(O)OP(=O)(O)O [geranyl pyrophosphate] | MKbur, like MKmaz, appears to be less sensitive to inhibition |  |  |  | 
3 |  |  | MKvar (Ramazzottius varieornatus) (protein) MSNLRHLRVSAPGKIILHGEHAVVYQKTAVALSLGLRTRLDLTETTDGRISIIMDKFLQHTSWSVEELSKIIDKVKIDANNPETELDQELVEDLRMMTSGHHYQNGDGPAVGNPQAYSTQSVALVGFLYILVKLCKFSGKQRPPSIQISISSDIAISAGLGSSAAFAVCLSASLLSYLGIIVCDRKNCADVDGKLVPSADQLALINHWAFMVEKIVHGSASGVDNAVSTYGGSIKYRNNELTRIGSGLKLDVLIVDTHVQRDTKKMLDIVRHRRKLYPAITNPVLEAIDGISETSSKILQHGDGLPTGEEYEVIADLVRMNQNLLSTLGVSHPKLDVICETASRFGQAGKLTGAGGGGCAIVVLDPDMRQFEHLRESIIAEYRRMEFKPHLAELGGPGVLFHPVP |  | 237 ± 68 | 5 ± 0.8 | 21000 | 4844 ± 1413
4 |  |  | MKmaz (Methanosarcina mazei Go1) (protein) MVSCSAPGKIYLFGEHAVVYGETAIACAVELRTRVRAELNDSITIQSQIGRTGLDFEKHPYVSAVIEKMRKSIPINGVFLTVDSDIPVGSGLGSSAAVTIASIGALNELFGFGLSLQEIAKLGHEIEIKVQGAASPTDTYVSTFGGVVTIPERRKLKTPDCGIVIGDTGVFSSTKELVANVRQLRESYPDLIEPLMTSIGKISRIGEQLVLSGDYASIGRLMNVNQGLLDALGVNILELSQLIYSARAAGAFGAKITGAGGGGCMVALTAPEKCNQVAEAVAGAGGKVTITKPTEQGLKVD |  | 123 ± 9 | 10 | 81000 | 511 ± 48
5 |  |  | MKbur (Methanococcoides burtonii DSM 6242) (protein) MITCSAPGKVYLFGEHAVVYGEPAICCAVDIRTRVTVSPADTITISSSLGTTGIDFEVHPYVSAVLERFQDISSFDGVDLRISSDIPVGSGLGSSAAVTVATIKAMDTLLDLGLELDDIAKMGHEVEQNIQGTASPTDTYVCTMGGVVLIPQRKKLELIDCGILIGNTNIFSSTKELVGNVADLNERFPDVVGPVLSSIGKLSVIGEGLVNDRDYVSVGELMNIDQGLLDAIGVSCAELSSLIYAARESGAYGSKITGAGGGGCMVAISPRENVDSVAEAIGMAGGKVVVANATDIGVRVECQ |  | 55 ± 11 | 5 | 90000 | 331 ± 63
